Reference: patent US20110159513A1
Like-named read-outs stand apart in the source and are kept apart here.

Legend:
Test in all cases: cell-based or functional assay
ErbB1 on NCI-ADRr cells [1] = target: ErbB1 on NCI-ADRr cells (UniProt P00533)
ErbB1 on NCI-ADRr cells [2] = target: ErbB1 on NCI-ADRr cells (UniProt P00533); remark: listed apart in the source
[3] = target: ErbB3 on tumour cells (NCI-ADRr, OVCAR8, OVCAR8-HER2) (UniProt P21860)

Sequence of heparin-binding epidermal growth factor (Q99075 63-148 limits assumed): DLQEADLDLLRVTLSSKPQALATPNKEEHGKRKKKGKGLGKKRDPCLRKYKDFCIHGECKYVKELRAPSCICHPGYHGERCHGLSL
Sequence of betacellulin (P35070 32-111 limits assumed): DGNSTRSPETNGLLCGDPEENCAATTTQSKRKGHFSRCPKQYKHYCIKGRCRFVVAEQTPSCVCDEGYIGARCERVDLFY

| Molecule | pErbB1 EC50 [nM], NCI-ADRr (ErbB1 on NCI-ADRr cells [1]) | pErbB1 % stimulation at 5 min relative to maximum (ErbB1 on NCI-ADRr cells [2]) | further results |
| --- | --- | --- | --- |
| betacellulin (from UniProt P35070 32-111) (ligand) | 5.7 nM | – | – |
| Epigen (ligand, UniProt Q6UW88 23-104, looked up) AAVTVTPPITAQQGNWTVNKTEADNIEGPIALKFSHLCLEDHNSYCINGACAFHHELEKAICRCFTGYTGERCEHLTLTSYA | – | 12% | – |
| heregulin HRG1-β (ligand, UniProt Q02297-6 177-241, looked up) SHLVKCAEKEKTFCVNGGECFMVKDLSNPSRYLCKCPNEFTGDRCQNYVMASFYKHLGIEFMEAE | – | – | pErbB3 % stimulation at 5 min relative to maximum [3]: 100%; pErbB3 EC50 [nM], NCI-ADRr [3]: 9.9 nM |

Second part, led by results:

| pErbB1 EC50 [nM], NCI-ADRr (ErbB1 on NCI-ADRr cells [1]) | pErbB1 % stimulation at 5 min relative to maximum (ErbB1 on NCI-ADRr cells [2]) | Molecule | further results |
| --- | --- | --- | --- |
| 21 nM | – | heparin-binding epidermal growth factor (from UniProt Q99075 63-148) (ligand) | pErbB1 % stimulation at 5 min relative to maximum (ErbB1 on NCI-ADRr cells [1]): 87% |
| 30 nM | – | transforming growth factor alpha (from UniProt P01135 40-89) (ligand) | – |
| – | 95% | amphiregulin (ligand, UniProt P15514 101-198, looked up) SVRVEQVVKPPQNKTESENTSDKPKRKKKGGKNGKNRRNRKKKNPCNAEFQNFCIHGECKYIEHLEAVTCKCQQEYFGERCGEKSMKTHSMIDSSLSK | pErbB1 EC50 [nM], NCI-ADRr (ErbB1 on NCI-ADRr cells [2]): 37 nM |
